This passage reports inhibition of protein synthesis of K562 cells (% inhibition (P1, 0.1 µM)) results from patent US5955073.

The target in the experiment is human transferrin receptor (human) (UniProt P02786).

“454A12-RNase conjugate (monoclonal antibody 454A12 against the human transferrin receptor coupled to RNase A)” gave an inhibition of protein synthesis of K562 cells (% inhibition (P1, 0.1 µM)) of 99.
